Experiments:
Murine APRIL [1] = target: T1, Murine APRIL (mouse, UniProt Q9D777 105-241, limits assumed); assay: NNS library, phage display;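 also: ligand versus display occurrence-to-degeneracy ratio and higher means enriched by binding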
T1 sequence (looked up): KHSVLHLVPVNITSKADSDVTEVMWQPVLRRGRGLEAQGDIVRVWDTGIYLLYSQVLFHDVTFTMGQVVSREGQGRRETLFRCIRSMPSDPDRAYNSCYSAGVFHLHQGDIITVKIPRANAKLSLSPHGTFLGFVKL
Procedure: (§1) This new phage library was subjected to sorting against either BAFF, APRIL or the display target antibody. After 3 rounds of sorting, approximately 48 clones were picked from each selection and the DNA sequences of the phage clones were determined. […] The normalized F′ value corrects for display bias and is calculated as the percent occurrence to percent degeneracy ratio for ligand selection divided by the percent occurrence to percent degeneracy ratio for display efficiency. Percent occurrence is calculated by dividing the number of times a particular amino acid appeared at a particular position by the total number of amino acids sequenced at that position followed by multiplying by 100. Percent degeneracy is calculated by dividing the degeneracy in code for a particular amino acid divided by the total degeneracy possible at that position followed by multiplying by 100 (e.g., if only A, G and I were selected, total degeneracy possible would be 5).

human BAFF = human BAFF (human, UniProt Q9Y275 82-285, limits assumed); assay: NNS library, phage display;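 also: ligand versus display occurrence-to-degeneracy ratio and higher means enriched by binding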
Sequence of human BAFF (Q9Y275 82-285 limits assumed): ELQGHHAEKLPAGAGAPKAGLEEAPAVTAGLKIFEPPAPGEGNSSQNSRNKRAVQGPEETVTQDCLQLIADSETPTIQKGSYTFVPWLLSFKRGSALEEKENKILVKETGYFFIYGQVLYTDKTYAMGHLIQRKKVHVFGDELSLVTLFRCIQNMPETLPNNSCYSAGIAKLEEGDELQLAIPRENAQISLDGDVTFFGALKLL
Procedure: as §1

Murine APRIL [2] = target: T1, Murine APRIL; assay: shotgun scan, phage display
Description: Phage from each of the libraries described above were subjected to rounds of binding selection against APRIL, BAFF, or anti-tag antibody (3C8:2F4 Genentech, Inc.) immobilized on 96-well Nunc Maxisorp immunoplates (Sidhu, 2001). BSA-coated wells were used to determine non-specific background binding. Phage eluted from each target were propagated in E. coli XL1-Blue in the presence of M13K07 helper phage; amplified phage were used for selection against the same target in the […] round. […] Enrichment was calculated from the ratio of the phage titer eluted from the target-coated wells to the phage titer eluted from the BSA-coated wells. Individual clones from each library and selection target were then grown in a 96-well format in 400 ul of 2YT medium supplemented with carbenicillin and KO7 helper phage. […] Sequences of acceptable quality were translated and aligned. For APRIL-binding, 71, 40, and 54 sequences were analyzed from libraries one, two and three, respectively. For BAFF-binding, 70, 50, and 53 sequences were analyzed for libraries one, two and three, respectively. For the display selection, a minimum of 47 sequences were analyzed for each library. […] F values describe the effect of mutation on target binding, while accounting for differences in display efficiencies, with values >1 representing deleterious mutations and those <1 representing favorable mutations.

Binder | F' APRIL (Murine APRIL [1]) | F' BAFF (human BAFF) | F (APRIL) (Murine APRIL [2])
SLSCRKEQGKCYDHLLRDCISCASICGQHPKQCAYFCENKLR (receptor, phage library variant, format as m9) [TACI_d2 F78C] | 0 | 0 | 
SLSCRKEQGKFYDHLLPDCISCASICGQHPKQCAYFCENKLR (receptor, phage library variant, format as m9) [TACI_d2 R84P] | 0 |  | > 22
SLSCRKEQGKFYDHLLRDCISCASDCGQHPKQCAYFCENKLR (receptor, phage library variant, format as m9) [TACI_d2 I92D] | 0 | 0 | 
SLSCRKEQGKFYDHLLLDCISCASICGQHPKQCAYFCENKLR (receptor, phage library variant, format as m9) [TACI_d2 R84L] | 3 | 2 | 
SLSCRKEQGKFYDHLLRDCISCASCCGQHPKQCAYFCENKLR (receptor, phage library variant, format as m9) [TACI_d2 I92C] | 0 | 0 | 
SLSCRKEQGKFYDHLLRDCISCASMCGQHPKQCAYFCENKLR (receptor, phage library variant, format as m9) [TACI_d2 I92M] | 0 | 0 | 
SLSCRKEQGKYYDHLLRDCISCASICGQHPKQCAYFCENKLR (receptor, phage library variant, format as m9) [TACI_d2 F78Y] | 61 | 41 | 
SLSCRKEQGKFYDHLLCDCISCASICGQHPKQCAYFCENKLR (receptor, phage library variant, format as m9) [TACI_d2 R84C] | 0 | 0 | 
SLSCRKEQGKFYDHLLNDCISCASICGQHPKQCAYFCENKLR (receptor, phage library variant, format as m9) [TACI_d2 R84N] | 0 | 1 | 
SLSCRKEQGKWYDHLLRDCISCASICGQHPKQCAYFCENKLR (receptor, phage library variant, format as m9) [TACI_d2 F78W] | 0 | 0 | 
SLSCRKEQGKFYDHLLRDCISCASQCGQHPKQCAYFCENKLR (receptor, phage library variant, format as m9) [TACI_d2 I92Q] | 0 | 0 | 
SLSCRKEQGKFYDHLLRDCISCASWCGQHPKQCAYFCENKLR (receptor, phage library variant, format as m9) [TACI_d2 I92W] | 0 | 0 | 
SLSCRKEQGKFYDHLLRDCISCASKCGQHPKQCAYFCENKLR (receptor, phage library variant, format as m9) [TACI_d2 I92K] | 0 | 0 | 
SLSCRKEQGKFSDHLLRDCISCASICGQHPKQCAYFCENKLR (receptor, phage library variant, format as m9) [TACI_d2 Y79S] | 0 |  | 31
SLSCRKEQGKFYDHLLFDCISCASICGQHPKQCAYFCENKLR (receptor, phage library variant, format as m9) [TACI_d2 R84F] | 9 | 7 | 
SLSCRKEQGKFYDHLLRDCISCASYCGQHPKQCAYFCENKLR (receptor, phage library variant, format as m9) [TACI_d2 I92Y] | 0 | 0 | 
SLSCRKEQGKFYDHLLMDCISCASICGQHPKQCAYFCENKLR (receptor, phage library variant, format as m9) [TACI_d2 R84M] | 18 | 7 | 
SLSCRKEQGKMYDHLLRDCISCASICGQHPKQCAYFCENKLR (receptor, phage library variant, format as m9) [TACI_d2 F78M] | 0 | 1 | 
SLSCRKEQGKDYDHLLRDCISCASICGQHPKQCAYFCENKLR (receptor, phage library variant, format as m9) [TACI_d2 F78D] | 0 | 0 | 
SLSCRKEQGKFYDHLLIDCISCASICGQHPKQCAYFCENKLR (receptor, phage library variant, format as m9) [TACI_d2 R84I] | 0 | 0 | 
SLSCRKEQGKNYDHLLRDCISCASICGQHPKQCAYFCENKLR (receptor, phage library variant, format as m9) [TACI_d2 F78N] | 0 | 0 | 
SLSCRKEQGKFYDHLLKDCISCASICGQHPKQCAYFCENKLR (receptor, phage library variant, format as m9) [TACI_d2 R84K] | 0 | 1 | 
SLSCRKEQGKFYDHLLRDCISCASPCGQHPKQCAYFCENKLR (receptor, phage library variant, format as m9) [TACI_d2 I92P] | 0 | 0 | 

Binder | F' APRIL (Murine APRIL [1]) | F' BAFF (human BAFF) | F (APRIL) (Murine APRIL [2])
SLSCRKEQGKRYDHLLRDCISCASICGQHPKQCAYFCENKLR (receptor, phage library variant, format as m9) [TACI_d2 F78R] | 0 | 0 | 
SLSCRKEQGKFYDHLLRDCISCASFCGQHPKQCAYFCENKLR (receptor, phage library variant, format as m9) [TACI_d2 I92F] | 0 | 0 | 
SLSCRKEQGKLYDHLLRDCISCASICGQHPKQCAYFCENKLR (receptor, phage library variant, format as m9) [TACI_d2 F78L] | 0 | 0 | 
SLSCRKEQGKQYDHLLRDCISCASICGQHPKQCAYFCENKLR (receptor, phage library variant, format as m9) [TACI_d2 F78Q] | 0 | 0 | 
SLSCRKEQGKFYDHLLRDCISCASSCGQHPKQCAYFCENKLR (receptor, phage library variant, format as m9) [TACI_d2 I92S] | 0 | 0 | 
SLSCRKEQGKFYDHLLRDCISCASNCGQHPKQCAYFCENKLR (receptor, phage library variant, format as m9) [TACI_d2 I92N] | 0 | 0 | 
SLSCRKEQGKFYDHLLRDCISCASLCGQHPKQCAYFCENKLR (receptor, phage library variant, format as m9) [TACI_d2 I92L] | 2 | 0 | 
SLSCRKEQGKKYDHLLRDCISCASICGQHPKQCAYFCENKLR (receptor, phage library variant, format as m9) [TACI_d2 F78K] | 0 | 0 | 
SLSCRKEQGKFYDHLLGDCISCASICGQHPKQCAYFCENKLR (receptor, phage library variant, format as m9) [TACI_d2 R84G] | 1 |  | 1.8
SLSCRKEQGKFYDHLLRDCISCASGCGQHPKQCAYFCENKLR (receptor, phage library variant, format as m9) [TACI_d2 I92G] | 0 | 0 | 
SLSCRKEQGKIYDHLLRDCISCASICGQHPKQCAYFCENKLR (receptor, phage library variant, format as m9) [TACI_d2 F78I] | 7 | 10 | 
SLSCRKEQGKFYDHLLRDCISCASHCGQHPKQCAYFCENKLR (receptor, phage library variant, format as m9) [TACI_d2 I92H] | 0 | 0 | 
SLSCRKEQGKEYDHLLRDCISCASICGQHPKQCAYFCENKLR (receptor, phage library variant, format as m9) [TACI_d2 F78E] | 0 | 5 | 
SLSCRKEQGKGYDHLLRDCISCASICGQHPKQCAYFCENKLR (receptor, phage library variant, format as m9) [TACI_d2 F78G] | 0 | 0 | 
SLSCRKEQGKFYDHLLRDCISCASECGQHPKQCAYFCENKLR (receptor, phage library variant, format as m9) [TACI_d2 I92E] | 0 | 0 | 
SLSCRKEQGKFYDHLLDDCISCASICGQHPKQCAYFCENKLR (receptor, phage library variant, format as m9) [TACI_d2 R84D] | 9 | 0 | 
SLSCRKEQGKHYDHLLRDCISCASICGQHPKQCAYFCENKLR (receptor, phage library variant, format as m9) [TACI_d2 F78H] | 0 | 0 | 
SLSCRKEQGKFYDHLLHDCISCASICGQHPKQCAYFCENKLR (receptor, phage library variant, format as m9) [TACI_d2 R84H] | 0 | 1 | 
SLSCRKEQGKPYDHLLRDCISCASICGQHPKQCAYFCENKLR (receptor, phage library variant, format as m9) [TACI_d2 F78P] | 0 | 0 | 
SLSCRKEQGKFYDHLLRDCISCASRCGQHPKQCAYFCENKLR (receptor, phage library variant, format as m9) [TACI_d2 I92R] | 0 | 0 | 
SLSCRKEQGKFYDHLLEDCISCASICGQHPKQCAYFCENKLR (receptor, phage library variant, format as m9) [TACI_d2 R84E] | 3 | 0 | 
SLSCRKEQGKTYDHLLRDCISCASICGQHPKQCAYFCENKLR (receptor, phage library variant, format as m9) [TACI_d2 F78T] | 1 | 0 | 
